Laboratory results as given in patent US9962447B2, “Supramolecular aggregates comprising maleimido cores” (UFPEPTIDES S.R.L., priority 2013, dated 2018).

Legend:
[1] = tested on: vas deferens tissues taken from NOP(+/+) mice; assay: Electrically stimulated vas deferens from NOP(+/+) mice; set-up: species or system mouse
Description: The bath temperature was set at 33° C. Tissues were continuously stimulated through two platinum ring electrodes with supramaximal rectangular pulses of 1 ms duration and 0.05 Hz frequency. A resting tension of 0.3 g was applied to the vas deferens. […] Following an equilibration period of 60 min, the contractions induced by electrical field stimulation were stable.

[2] = tested on: electrically stimulated mouse vas deferens; assay: Electrically stimulated mouse vas deferens
Description: The bath temperature was set at 33° C. Tissues were continuously stimulated through two platinum ring electrodes with supramaximal rectangular pulses of 1 ms duration and 0.05 Hz frequency. A resting tension of 0.3 g was applied to the vas deferens.
assuming a slope value equal to unity, where CR indicate the ratio between agonist potency in the presence and absence of antagonist.

[3] = biological target: human NOP receptor (Homo sapiens, UniProt P41146); assay: Calcium mobilization in CHO cells expressing human NOP receptor and Gαqi5; assay type: cell-based; settings: inactive = inactive up to 1 μM
Sequence of human NOP receptor (P41146 whole entry): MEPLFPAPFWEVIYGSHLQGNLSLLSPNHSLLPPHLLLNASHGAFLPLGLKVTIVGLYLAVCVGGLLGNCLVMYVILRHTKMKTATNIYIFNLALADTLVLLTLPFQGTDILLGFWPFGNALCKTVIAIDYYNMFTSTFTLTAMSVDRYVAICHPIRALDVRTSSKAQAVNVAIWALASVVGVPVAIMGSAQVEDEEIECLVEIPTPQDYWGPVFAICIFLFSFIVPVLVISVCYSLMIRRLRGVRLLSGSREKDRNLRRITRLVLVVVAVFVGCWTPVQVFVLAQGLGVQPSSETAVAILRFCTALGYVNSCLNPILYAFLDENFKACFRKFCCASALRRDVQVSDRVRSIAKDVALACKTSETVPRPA
Description: Cells were maintained in culture medium consisting of Dulbecco's MEM/HAM'S F-12 (50/50) supplemented with 10% foetal calf serum, penicillin (100 IU/ml), streptomycin (100 μg/ml), fungizone (2.5 μg/ml), geneticin (G418; 200 μg/ml) and hygromycin B ([…]). Cell cultures were kept at 37° C. in 5% CO2 humidified air. In all cases experimental cultures were free from selection agents (hygromycin B, G418). When confluence was reached (3-4 days), cells were sub-cultured as required using trypsin EDTA and used for experimentation. Cells were seeded at a density of 50,000 cells/well into 96-well black, clear-bottom plates. After 24 hours incubation the cells were loaded with medium supplemented with 2.5 mM probenecid, 3 μM of the calcium sensitive fluorescent dye Fluo-4 AM and 0.01% pluronic acid, for 30 min at 37° C. Afterwards the loading solution was aspirated and 100 μl/well of assay buffer: Hank's Balanced Salt Solution (HBSS) supplemented with 20 mM HEPES, 2.5 mM probenecid and 500 μM Brilliant Black (Aldrich) was added. […] On-line additions were carried out in a volume of 50 μl/well. […]
(§1) Four mice were monitored in parallel. […] Animals locomotion was recorded for 60 min.

[4] = biological target: MOP receptor (Homo sapiens, UniProt P35372); assay: Calcium mobilization in CHO cells expressing MOP receptor and Gαqi5; assay type: cell-based; settings: inactive = inactive up to 1 μM
Sequence of MOP receptor (P35372 whole entry): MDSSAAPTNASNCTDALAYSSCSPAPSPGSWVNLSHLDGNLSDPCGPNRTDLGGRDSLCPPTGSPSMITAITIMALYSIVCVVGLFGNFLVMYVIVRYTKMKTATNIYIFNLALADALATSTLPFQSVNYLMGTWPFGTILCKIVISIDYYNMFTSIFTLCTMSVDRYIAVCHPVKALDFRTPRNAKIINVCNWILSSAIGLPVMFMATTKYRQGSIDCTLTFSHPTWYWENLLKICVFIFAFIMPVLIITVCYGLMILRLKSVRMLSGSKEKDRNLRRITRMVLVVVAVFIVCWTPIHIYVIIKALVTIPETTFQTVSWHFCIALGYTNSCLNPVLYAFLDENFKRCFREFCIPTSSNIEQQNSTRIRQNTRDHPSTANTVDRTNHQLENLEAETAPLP
Description: Cell cultures were kept at 37° C. in 5% CO2 humidified air. In all cases experimental cultures were free from selection agents (hygromycin B, G418). When confluence was reached (3-4 days), cells were sub-cultured as required using trypsin EDTA and used for experimentation. Cells were seeded at a density of 50,000 cells/well into 96-well black, clear-bottom plates. After 24 hours incubation the cells were loaded with medium supplemented with 2.5 mM probenecid, 3 μM of the calcium sensitive fluorescent dye Fluo-4 AM and 0.01% pluronic acid, for 30 min at 37° C. Afterwards the loading solution was aspirated and 100 μl/well of assay buffer: Hank's Balanced Salt Solution (HBSS) supplemented with 20 mM HEPES, 2.5 mM probenecid and 500 μM Brilliant Black (Aldrich) was added. […] On-line additions were carried out in a volume of 50 μl/well. To facilitate drug diffusion into the wells in antagonist type experiments, the present studies were performed at 37° C. and three cycles of mixing (25 μl from each well moved up and down 3 times) were performed immediately after antagonist injection to the wells.
as §1

[5] = tested on: spontaneous locomotor activity; assay: Mouse locomotor activity, CD-1 mice, i.c.v.; assay type: in vivo
[6] = tested on: locomotor activity of NOP(−/−) mice; assay: Locomotor activity of NOP(−/−) mice; settings: 0.25 nmole, 120 min post injection
Description: (§2) Mice were positioned in a square plastic cage (40×40 cm), one mouse per cage. Four mice were monitored in parallel. Mouse horizontal activity was monitored by a camera while vertical activity was measured by an infrared beam array. Animals locomotion was recorded for 60 min.
(§3) In vivo data are expressed as mean±sem of n animals. Data were analysed using one-way analysis of variance (ANOVA) followed by Dunnett post hoc test. Differences were considered statistically significant when p<0.05.

[7] = tested on: vas deferens tissues taken from NOP(−/−) mice; assay: Electrically stimulated vas deferens from NOP(−/−) mice; set-up: species or system mouse; settings: CL95% in brackets
Description: The mouse vas deferens were prepared as previously described (Calto et al., Eur J Pharmacol. 311, (1996) R3-5). Tissues were suspended in 5 ml organ baths containing heated Krebs solution (composition in mM: NaCl 118.5, KCl 4.7, KH2PO4 1.2, NaHCO3 25, glucose 10 and CaCl2 2.5) oxygenated with 95% O2 and 5% CO2. The bath temperature was set at 33° C. Tissues were continuously stimulated through two platinum ring electrodes with supramaximal rectangular pulses of 1 ms duration and 0.05 Hz frequency. A resting tension of 0.3 g was applied to the vas deferens. The electrically evoked contractions (twitches) were measured isotonically with a strain gauge transducer (Basile 7006, UgoBasile s.r.l., Varese, Italy) and recorded with the PC based acquisition system Power Lab (ADInstrument, USA). Following an equilibration period of 60 min, the contractions induced by electrical field stimulation were stable.

[8] = tested on: locomotor activity of NOP(+/+) mice; assay: Locomotor activity of NOP(+/+) mice; settings: 0.25 nmole, 120 min post injection
Description: as §2, §3

B1: PWT2-N/OFQ: supramolecular aggregate of maleimido core PWT2 with nociceptin/orphanin FQ, made from PWT2 and [Cys18]N/OFQ-NH2 by thiol-Michael addition (conjugate)
peptide: SCQRDCLTCQEKLHPALDSFDLEVCILECEEKVFPSPLWTPCTKVMARSSWQLSPAAPEHVAAALYQPRASEMQHLRRMPRVRSLFQEQEEPEPGMEEAGEMEQKQLQKRFGGFTGARKSARKLANQKRFSEFMRQYLVLSMQSSQRRRTLHQNGNVC
pEC50 ([1]; CL95% in brackets): 7.92
Emax ([1]; maximal inhibition of electrically induced contractions): 91 ± 2%
reversal of inhibitory effect after washing the tissue [2]: rather resistant to washing
Emax ([2]; % inhibition of control twitch): 93 ± 2%
onset of inhibitory effect ([2]; after adding to the bath): slow inhibitory effect
pEC50 ([2]; inhibition of twitch response, CD1 mouse vas deferens, CL95% in brackets): 7.78 (7.57-7.99)
time for inhibitory effect to reach the plateau ([2]; mouse vas deferens): 10 min
pEC50 (CL95%) [3]: 8.83
pEC50 [4]: inactive
locomotor activity in overnight experiment ([5]; i.c.v. at 11 AM, N/OFQ 10 nmole, PWT2-N/OFQ 0.25 nmole, measured 3 PM to 9 AM): statistically significant reduced distance travelled and rearing behaviour associate with increased immobility time for the whole time course of the experiment
acute effects on spontaneous locomotor activity ([5]; i.c.v., CD-1 mice, recorded for 120 min): slow onset of action and prolonged effects compared to the natural peptide
Distance travelled (m) [6]: 203 ± 26 m
Immobility time [6]: 2372 ± 525 s
Rearings (n) [6]: 625 ± 181 n
pEC50 [7]: 5.85 (5.55-6.15)
Distance travelled (m) [8]: 104 ± 19 m
Immobility time [8]: 3305 ± 390 s
Rearings (n) [8]: 96 ± 19 n
